The Kd is the equilibrium constant for the complex coming apart. Lower therefore signals tighter binding.

The results in this text go back to article doi:10.1101/2021.12.02.470928.

Assay in all cases: BLI
For orientation: BLI is a label-free optical method that tracks binding on a fibre tip over time.

For assay [1], the target named is PAD M141W (UniProt Q96QC0).
Assay [2] deals with PAD A114K (UniProt Q96QC0).
The target of another assay is PAD K109A (UniProt Q96QC0).
A further assay has as its target PAD K118A (UniProt Q96QC0).
Assay [3] concerns the target PAD K122A (UniProt Q96QC0).
In assay [4] the target is PAD M141F (UniProt Q96QC0).
Sequence of PAD M141F (Q96QC0 1-148 M141F): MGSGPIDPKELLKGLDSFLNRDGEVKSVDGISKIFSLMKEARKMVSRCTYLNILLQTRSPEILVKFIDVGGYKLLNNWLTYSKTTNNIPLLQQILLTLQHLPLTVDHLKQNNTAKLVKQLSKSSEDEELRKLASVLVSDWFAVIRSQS
Assay [5] concerns the target PAD M141W (UniProt Q96QC0). This is another data set of the same source.
Assay [6] deals with PAD M141F (UniProt Q96QC0). This is another data set of the same source.
Assay [7] has as its target PAD K122A (UniProt Q96QC0). This is another data set of the same source.
Assay [8] has as its target PAD A114K (UniProt Q96QC0). The source holds these as a separate data set.

Read-outs that look alike come from different tables or passages of the source.

Sequence of PAD M141W (Q96QC0 1-148 M141W): as the sequence (Q96QC0 1-148 M141F) above, with F141W counted along it
Sequence of PAD K122A (Q96QC0 1-148 K122A): as the sequence (Q96QC0 1-148 M141F) above, with K122A, F141M counted along it
Sequence of PAD A114K (Q96QC0 1-148 A114K): as the sequence (Q96QC0 1-148 M141F) above, with A114K, F141M counted along it
Sequence of PAD K109A (Q96QC0 1-148 K109A): as the sequence (Q96QC0 1-148 M141F) above, with K109A, F141M counted along it
Sequence of PAD K118A (Q96QC0 1-148 K118A): as the sequence (Q96QC0 1-148 M141F) above, with K118A, F141M counted along it

Regarding “biotinyl-MB0 peptide (MYC 16-33) (from UniProt P01106-2 16-33)”, the Kd in the assay with PAD M141W [1] turned out to be 24 µM; with PAD A114K [2], 52 µM; in the assay with PAD K109A it was 27 µM; with PAD K118A, 12 µM; in the assay with PAD K122A [3] it was 35 µM; in the assay with PAD M141F [4] it was 19 µM. Also, the Kd with PAD M141W [5] came out at 24 µM; in the assay with PAD M141F [6], 19 µM; in the assay with PAD K122A [7], 35 µM; in the assay with PAD A114K [8] it was 52 µM.
